In patent publication US20170002074A1:
One block for each substance: values may come before it.

Experiments:
Human CD33 (human) [1] = target: Human CD33 (human) (UniProt P20138); assay: FACS on 293-hCD33 cells, isotype control of the competition experiment
[2] = target: huCD33 R69G variant (human) (UniProt P20138); assay: FACS, control antibody, on 293AD cells labelled 'SNPG69R', taken as the SNP variant of paragraph 650
[3] = target: Full-length huCD33 membrane construct with single mutation S115A (human) (UniProt P20138); assay: FACS with APC-labelled isotype control on 293AD cells transiently expressing huCD33 S115A
Full-length huCD33 membrane construct with single mutation S115A (human), sequence (P20138 18-364 S115A): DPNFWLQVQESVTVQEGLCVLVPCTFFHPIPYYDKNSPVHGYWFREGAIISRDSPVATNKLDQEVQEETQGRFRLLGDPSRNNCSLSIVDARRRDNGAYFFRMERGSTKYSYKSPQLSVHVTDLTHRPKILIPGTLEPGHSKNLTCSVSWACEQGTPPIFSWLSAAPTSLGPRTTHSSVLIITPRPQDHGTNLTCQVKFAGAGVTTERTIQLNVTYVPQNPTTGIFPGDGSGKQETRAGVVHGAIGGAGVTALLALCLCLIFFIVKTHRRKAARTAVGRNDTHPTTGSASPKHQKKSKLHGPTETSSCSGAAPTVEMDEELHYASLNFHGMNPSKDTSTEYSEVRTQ

[4] = target: Full-length huCD33 membrane construct with single mutation S115A (human) (UniProt P20138); assay: FACS with Dylight 650 labelled isotype control on 293AD cells transiently expressing huCD33 S115A
[5] = target: Full-length huCD33 membrane construct with double mutation S102A/S115A (human) (UniProt P20138); assay: FACS with WM53-APC (BD-Bioscience) on 293AD cells transiently expressing huCD33 S102A/S115A
Full-length huCD33 membrane construct with double mutation S102A/S115A (human), sequence (P20138 18-364 S102A/S115A): as the sequence (P20138 18-364 S115A) above, with S85A counted along it

Human CD33 (human) [6] = target: Human CD33 (human) (UniProt P20138); assay: FACS with WM53-APC (BD-Bioscience) on HEK293AD cells stably expressing rhCD33 (positive control stain)
[7] = target: Full-length huCD33 membrane construct with single mutation S115A (human) (UniProt P20138); assay: FACS with WM53-APC (BD-Bioscience) on 293AD cells transiently expressing huCD33 S115A
[8] = target: Construct-88: irrelevant Ig-like V linked to a CD33 Ig-like C (R144-Q228 including TM/CD L229) (human); assay: FACS on 293 cells transiently transfected with construct 88, control antibody
Construct-88: irrelevant Ig-like V linked to a CD33 Ig-like C (R144-Q228 including TM/CD L229) (human), sequence (P20138 144-364): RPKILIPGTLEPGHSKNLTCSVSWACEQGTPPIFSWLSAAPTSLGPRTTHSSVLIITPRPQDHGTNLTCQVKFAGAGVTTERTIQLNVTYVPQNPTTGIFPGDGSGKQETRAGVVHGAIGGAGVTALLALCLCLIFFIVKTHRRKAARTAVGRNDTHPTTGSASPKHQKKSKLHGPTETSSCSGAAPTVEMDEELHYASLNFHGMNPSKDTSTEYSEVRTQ

[9] = target: Construct-88B: CD33 Ig-like V (M17-V136 including spacer H137-H143) linked to an irrelevant Ig-like C (including TM/CD) (human); assay: FACS on 293 cells transiently transfected with construct 88B, control antibody
Construct-88B: CD33 Ig-like V (M17-V136 including spacer H137-H143) linked to an irrelevant Ig-like C (including TM/CD) (human), sequence (chain, as listed by the source limits assumed, form in doubt): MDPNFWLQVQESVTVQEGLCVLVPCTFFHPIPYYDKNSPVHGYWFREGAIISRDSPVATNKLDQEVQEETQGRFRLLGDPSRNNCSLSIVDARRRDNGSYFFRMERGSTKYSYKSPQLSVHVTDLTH

huCD33 R69G variant (human), sequence (P20138 18-364 R69G): as the sequence (P20138 18-364 S115A) above, with R52G, A98S counted along it
Human CD33 (human), sequence (P20138 18-364): as the sequence (P20138 18-364 S115A) above, with A98S counted along it

Substance: Isotype (antibody)
- Geom. Mean:FL1 (Human CD33 (human) [1]): 3.58

Substance: WM53 (antibody)
- Geom. Mean:FL4-H [5]: 500
- Geom. Mean:FL4-H (Human CD33 (human) [6]): 1280
- Geom. Mean:FL4-H [7]: 609

Substance: gD (antibody)
- Geom. Mean:FL1-H [2]: 5.83

The remaining lines, values ahead:

- Geom. Mean:FL1-H [2]: 5.78
Substance: mIgG1 (antibody)

- Geom. Mean:FL4-H [3]: 2.52
Substance: Iso-APC (antibody)

- Geom. Mean:FL4-H [4]: 8.67
Substance: Iso-650 (antibody)

- Geom. Mean:FL4-H [8]: 13.9
- Geom. Mean:FL4-H [9]: 16.7
Substance: hgD-650 (antibody)
